Kd data for one sequence are collected here from patent US20220333113.

Holding throughout (test): filter
Holding throughout (details): J = PPdU at every J; SB18T0.01 + 1 mM DTT, 37 C

Data set [1] deals with T1, RIG-I ΔCARDs (aa 229-925) (Homo sapiens) (UniProt O95786).
T1 sequence: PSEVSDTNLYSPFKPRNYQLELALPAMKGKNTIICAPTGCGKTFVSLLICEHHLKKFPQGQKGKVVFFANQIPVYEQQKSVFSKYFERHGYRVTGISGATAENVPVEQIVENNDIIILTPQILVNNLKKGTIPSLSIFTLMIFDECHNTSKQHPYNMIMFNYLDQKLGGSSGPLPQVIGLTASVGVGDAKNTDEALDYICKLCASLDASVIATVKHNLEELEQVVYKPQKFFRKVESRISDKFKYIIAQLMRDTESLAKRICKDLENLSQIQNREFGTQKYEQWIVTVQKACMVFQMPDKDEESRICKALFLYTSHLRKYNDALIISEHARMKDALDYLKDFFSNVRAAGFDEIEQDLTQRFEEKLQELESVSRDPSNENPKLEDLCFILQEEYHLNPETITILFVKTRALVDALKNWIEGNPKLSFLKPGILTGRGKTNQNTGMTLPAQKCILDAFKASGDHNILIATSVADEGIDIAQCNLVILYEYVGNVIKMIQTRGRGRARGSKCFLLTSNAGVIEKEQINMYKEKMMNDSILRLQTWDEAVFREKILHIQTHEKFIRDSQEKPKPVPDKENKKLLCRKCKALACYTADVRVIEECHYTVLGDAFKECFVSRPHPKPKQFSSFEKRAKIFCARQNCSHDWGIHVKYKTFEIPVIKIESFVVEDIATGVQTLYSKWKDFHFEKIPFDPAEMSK

The target of data set [2] is T2, RIG-I K888A (Homo sapiens) (UniProt O95786).
T2 sequence: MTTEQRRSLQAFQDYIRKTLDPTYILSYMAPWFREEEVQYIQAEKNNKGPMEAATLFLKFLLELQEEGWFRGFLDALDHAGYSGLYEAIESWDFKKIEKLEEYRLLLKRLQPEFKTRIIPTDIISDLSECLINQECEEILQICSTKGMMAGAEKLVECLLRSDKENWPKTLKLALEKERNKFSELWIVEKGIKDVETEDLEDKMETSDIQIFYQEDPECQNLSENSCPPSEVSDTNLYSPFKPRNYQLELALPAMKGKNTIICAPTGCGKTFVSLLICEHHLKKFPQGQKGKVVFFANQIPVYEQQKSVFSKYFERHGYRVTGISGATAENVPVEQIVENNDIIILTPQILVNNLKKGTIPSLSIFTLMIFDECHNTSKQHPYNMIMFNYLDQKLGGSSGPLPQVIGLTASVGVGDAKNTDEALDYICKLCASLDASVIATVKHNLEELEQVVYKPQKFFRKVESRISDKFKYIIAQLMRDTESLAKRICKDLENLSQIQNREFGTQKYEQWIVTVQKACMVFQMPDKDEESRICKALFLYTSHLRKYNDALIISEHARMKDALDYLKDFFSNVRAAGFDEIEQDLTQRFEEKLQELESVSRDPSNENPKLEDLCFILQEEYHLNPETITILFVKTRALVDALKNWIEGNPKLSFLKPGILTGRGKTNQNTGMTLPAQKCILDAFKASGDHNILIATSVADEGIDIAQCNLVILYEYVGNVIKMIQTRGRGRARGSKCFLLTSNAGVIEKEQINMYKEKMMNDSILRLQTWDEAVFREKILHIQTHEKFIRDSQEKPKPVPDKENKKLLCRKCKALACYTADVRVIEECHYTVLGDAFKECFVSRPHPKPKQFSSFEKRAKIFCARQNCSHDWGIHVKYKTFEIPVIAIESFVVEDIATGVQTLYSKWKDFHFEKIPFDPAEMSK

Data set [3] has as its target T3, RIG-I K849A (Homo sapiens) (UniProt O95786).
T3 sequence: T2 sequence with K849A, A888K

Broadly, the Kd is a measure of binding affinity in units of concentration.

Residue numbers refer to the chain shown, from its start.

In the case of “ATCTCTGTGTCATGTGTTTTAATGTCAGTTTAATGATGAGG [14832-55_8]”, the Kd in data set [1] was found to be 0.013 nM; in data set [2], 0.53 nM; in data set [3] it was 0.62 nM.
